Experimental data: patent US10113152B1, “Variant polypeptides capable of aminating aliphatic alpha keto acids” (AbbVie Inc., priority 2014, dated 2018)

How the values were obtained:
[1] = HPLC analysis of the percentage of (S)-enantiomer in the LCAA reaction product; type: biochemical; conditions: LCAA product of the Example 1 reaction, FIG. 4
Experimental: (§1) To produce (S)-LCAA from 2-oxonon-8-enoic acid, a reaction was performed under the following conditions. In 200 mL total volume and a buffered pH of 9.5, the aqueous reaction mixture contained 10 mM 2-oxonon-8-enoic acid, 12 mM glucose, 1 mM NAD^+, 50 mg of purified glucose dehydrogenase (GDH-105; Codexis, Redwood City, Calif.), 2 M NH4Cl/OH, and approximately 60 mL/L of purified leucine dehydrogenase cell-free extract. FIG. 2 depicts the reaction scheme for converting 2-oxonon-8-enoic acid to (S)-LCAA using leucine dehydrogenase. The mixture was incubated at 30° C. and with shaking at 150 rpm for four hours.
To determine what percentage of the LCAA reaction product of the reaction was (S)-LCAA, aliquots of the reaction mixture were analyzed using high performance liquid chromatography (HPLC).

[2] = Reductive amination of 2-oxonon-8-enoic acid to (S)-LCAA by leucine dehydrogenase (NADH consumption at 340 nm, HPLC of aliquots); type: biochemical; conditions: by four hours; 10 mM 2-oxonon-8-enoic acid, 2 M NH4Cl/OH, pH 9.5, 30° C., GDH/glucose NADH regeneration; FIG. 3
Experimental: as §1
Enzyme activity was measured spectrophotometrically by monitoring the consumption of NADH in the reductive amination at 340 nm. Activity was defined as the number of micromoles of NADH consumed in 1 minute (μmol min^−1). Aliquots of the reaction mixture were obtained periodically during the course of the reaction and subjected to analysis by high performance liquid chromatography (HPLC).
To increase the affinity of LDH for the 2-oxonon-8-enoic acid substrate and, thus, enhance the enzyme's activity for producing (S)-LCAA, amino acid substitutions were made within the region of LDH that binds to the substrate. Specifically, amino acid substitutions were introduced at position 42 of B. cereus leucine dehydrogenase (SEQ ID NO:1) using standard mutagenesis techniques. Wild-type B. cereus LDH, along with 19 variants (one for each amino acid substitution at position 42) were expressed and isolated as described in Example 1. The enzymatic activity of the variant proteins was evaluated alongside wild-type B. cereus LDH in the reaction described in Example 1. […] While the disclosure is not bound by any particular theory or mechanism of action, the substitutions that increased the enzymatic activity of the LDH enzyme are believed to have increased the depth of the substrate binding pocket in LDH and thereby increased the affinity of LDH for the 2-oxonon-8-enoic acid substrate.

B1: wild-type B. cereus LDH: wild-type B. cereus leucine dehydrogenase, amino acid sequence SEQ ID NO:1 (UniProt P0A392), cell-free extract from E. coli (protein, listed as Bacillus cereus)
chain: MTLEIFEYLEKYDYEQVVFCQDKESGLKAIIAIHDTTLGPALGGTRMWTYDSEEAAIEDALRLAKGMTYKNAAAGLNLGGAKTVIIGDPRKDKSEAMFRALGRYIQGLNGRYITAEDVGTTVDDMDIIHEETDFVTGISPSFGSSGNPSPVTAYGVYRGMKAAAKEAFGTDNLEGKVIAVQGVGNVAYHLCKHLHAEGAKLIVTDINKEAVQRAVEEFGASAVEPNEIYGVECDIYAPCALGATVNDETIPQLKAKVIAGSANNQLKEDRHGDIIHEMGIVYAPDYVINAGGVINVADELYGYNRERALKRVESIYDTIAKVIEISKRDGIATYVAADRLAEERIASLKNSRSTYLRNGHDIISRR
[1]
  percentage of the reaction product that was the (S)-enantiomer: greater than 99.5%
[2]
  conversion of the substrate to LCAA: greater than 99.5%
